In patent US20260242478A1 (published 2026):
Where no end group is shown, it is not given here.

Experiments:
[1] = molecular target: T1, Anti-CD28 Fab (SEQ ID NOs: 696, 697); test: phage binding ELISA on Fab coated plate; wells pre-incubated with CD28 antigen as competitor
T1 construct: In the phage ELISA the Fab was biotinylated and captured on neutravidin coated plates
T1 sequence (VH, as listed by the source, chain 1 of 2): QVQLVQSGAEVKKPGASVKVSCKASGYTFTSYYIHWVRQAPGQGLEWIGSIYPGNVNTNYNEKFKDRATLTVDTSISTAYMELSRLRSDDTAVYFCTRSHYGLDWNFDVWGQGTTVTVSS
T1 sequence (VL, as listed by the source, chain 2 of 2): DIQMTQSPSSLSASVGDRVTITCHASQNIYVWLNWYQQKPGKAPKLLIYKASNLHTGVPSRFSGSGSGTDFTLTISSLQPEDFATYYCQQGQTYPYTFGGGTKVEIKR
Description: (§1) After panning, phage infected bacteria were plated out and colonies picked into 96 well blocks. Clonal phage was then amplified and separated from bacterial cells via centrifugation.
(§2) Clonal phage were harvested as crude supematants and screened via standard ELISAs. […] Prior to the addition of clonal phage, wells were incubated with blocking buffer and CD28 antigen or blocking buffer alone. Without washing or aspirating, clonal phage supematants were then added to the wells and incubated for a short time. Wells were then washed followed by detection of bound phage using a horse radish conjugated anti-M13 antibody. Clonal phage of interest were then sent for sequence analysis.

[2] = molecular target: T1, Anti-CD28 Fab (SEQ ID NOs: 696, 697); test: phage binding ELISA; biotinylated Fab on neutravidin plate, clonal phage supernatant, anti-M13 HRP detection;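 note: phage from clones picked after panning, added to wells pre-incubated with blocking buffer with or without CD28 antigen, then briefly incubated and washed before detection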
Description: as §1, §2

[3] = molecular target: T2, Anti-CD28 Fab (SEQ ID NOs: 696, 697); test: phage ELISA; biotinylated anti-CD28 Fab on neutravidin plate, bound phage detected with anti-M13-HRP
T2 construct: In the phage ELISA the Fab was biotinylated and captured on neutravidin coated plates
T2 sequence (VH, as listed by the source, chain 1 of 2): as the sequence (VH, as listed by the source, chain 1 of 2) above
T2 sequence (VL, as listed by the source, chain 2 of 2): as the sequence (VL, as listed by the source, chain 2 of 2) above
Description: as §1, §2

[4] = molecular target: T2, Anti-CD28 Fab (SEQ ID NOs: 696, 697); test: phage ELISA on captured anti-CD28 Fab; competitor: CD28 antigen pre-incubated in the well
Description: as §1, §2

[5] = molecular target: T3, Anti-CD28 Fab (SEQ ID NOs: 696, 697); test: phage ELISA; biotinylated anti-CD28 Fab on neutravidin plates, clonal phage supernatant, anti-M13 HRP detection
T3 construct: Biotinylated and captured on neutravidin coated plates in the phage ELISA
T3 sequence (VH, as listed by the source, chain 1 of 2): as the sequence (VH, as listed by the source, chain 1 of 2) above
T3 sequence (VL, as listed by the source, chain 2 of 2): as the sequence (VL, as listed by the source, chain 2 of 2) above
Description: as §1, §2

[6] = molecular target: T3, Anti-CD28 Fab (SEQ ID NOs: 696, 697); test: phage ELISA; as above with CD28 antigen as competitor pre-incubated on the Fab coated wells
Description: as §1, §2

[7] = molecular target: Anti-CD28 Fab (SEQ ID NOs: 696, 697); test: phage binding ELISA; biotinylated anti-CD28 Fab on neutravidin plate, clonal phage supernatant, anti-M13 HRP detection
Target sequence in this assay (VH, as listed by the source, chain 1 of 2): as the sequence (VH, as listed by the source, chain 1 of 2) above
Target sequence in this assay (VL, as listed by the source, chain 2 of 2): as the sequence (VL, as listed by the source, chain 2 of 2) above

[8] = molecular target: Anti-CD28 Fab (SEQ ID NOs: 696, 697); test: phage binding ELISA on captured anti-CD28 Fab; competitor: CD28 antigen preincubated in the wells
Target sequence in this assay (VH, as listed by the source, chain 1 of 2): as the sequence (VH, as listed by the source, chain 1 of 2) above
Target sequence in this assay (VL, as listed by the source, chain 2 of 2): as the sequence (VL, as listed by the source, chain 2 of 2) above

Row | Binder | Anti-CD28 Fab signal (phage binding ELISA) [3] | Anti-CD28 Fab signal in the presence of CD28 [4] | Phage binding ELISA, Anti-CD28 Fab signal [5] | Phage binding ELISA, Anti-CD28 Fab signal in the presence of CD28 [6] | further results
1 | YCAGHSAEYMAKCL (not shown: pIII coat protein of the bacteriophage to which the peptide is fused) [Phage-869] | – | – | – | – | Anti-CD28 Fab signal in the presence of CD28 [1]: 0.07; Anti-CD28 Fab (SEQ ID NOs: 696, 697) signal [2]: 1.73
2 | YCDGHSGVYMWKCL (not shown: pIII coat protein of the bacteriophage to which the peptide is fused) [Phage-870] | – | – | – | – | Anti-CD28 Fab signal in the presence of CD28 [1]: 0.08; Anti-CD28 Fab (SEQ ID NOs: 696, 697) signal [2]: 1.73
3 | YCDGHTQAYIQKCL (not shown: pIII coat protein of the bacteriophage to which the peptide is fused) [Phage-871] | – | – | – | – | Anti-CD28 Fab signal in the presence of CD28 [1]: 0.06; Anti-CD28 Fab (SEQ ID NOs: 696, 697) signal [2]: 1.73
4 | YCDGHAIQYIGKCL (not shown: pIII coat protein of the bacteriophage to which the peptide is fused) [Phage-872] | – | – | – | – | Anti-CD28 Fab signal in the presence of CD28 [1]: 0.09; Anti-CD28 Fab (SEQ ID NOs: 696, 697) signal [2]: 1.72
5 | YCDGHAAEFMMKCL (not shown: pIII coat protein of the bacteriophage to which the peptide is fused) [Phage-873] | – | – | – | – | Anti-CD28 Fab signal in the presence of CD28 [1]: 0.06; Anti-CD28 Fab (SEQ ID NOs: 696, 697) signal [2]: 1.72
6 | YCDGHLSEYMAKCL (not shown: pIII coat protein of the bacteriophage to which the peptide is fused) [Phage-874] | – | – | – | – | Anti-CD28 Fab signal in the presence of CD28 [1]: 0.08; Anti-CD28 Fab (SEQ ID NOs: 696, 697) signal [2]: 1.72
7 | YCEGHSEMYMKKCL (not shown: pIII coat protein of the bacteriophage to which the peptide is fused) [Phage-875] | – | – | – | – | Anti-CD28 Fab signal in the presence of CD28 [1]: 0.07; Anti-CD28 Fab (SEQ ID NOs: 696, 697) signal [2]: 1.72
8 | YCDGHLQIYLWKCL (not shown: pIII coat protein of the bacteriophage to which the peptide is fused) [Phage-876] | – | – | – | – | Anti-CD28 Fab signal in the presence of CD28 [1]: 0.07; Anti-CD28 Fab (SEQ ID NOs: 696, 697) signal [2]: 1.72
9 | YCQGHLPVYMEKCL (not shown: pIII coat protein of the bacteriophage to which the peptide is fused) [Phage-877] | – | – | – | – | Anti-CD28 Fab signal in the presence of CD28 [1]: 0.06; Anti-CD28 Fab (SEQ ID NOs: 696, 697) signal [2]: 1.72
10 | YCDGHAAEYMDKCL (not shown: pIII coat protein of the bacteriophage to which the peptide is fused) [Phage-878] | – | – | – | – | Anti-CD28 Fab signal in the presence of CD28 [1]: 0.07; Anti-CD28 Fab (SEQ ID NOs: 696, 697) signal [2]: 1.72
11 | YCEGHSVQYMQKCL (not shown: pIII filament protein of the bacteriophage to which the peptide is fused) [Phage-879] | 1.71 | 0.06 | – | – | –
12 | YCAGHLPEYLDKCL (cysteine pairing not given here; also: fused to phage pIII, not shown: pIII filament protein of the bacteriophage to which the peptide is fused) [Phage-880] | 1.71 | 0.07 | – | – | –
13 | YCDGHSREYMVKCL (cysteine pairing not given here; also: fused to phage pIII, not shown: pIII filament protein of the bacteriophage to which the peptide is fused) [Phage-881] | 1.71 | 0.06 | – | – | –
14 | YCDGHLVEYRGKCL (cysteine pairing not given here; also: fused to phage pIII, not shown: pIII filament protein of the bacteriophage to which the peptide is fused) [Phage-882] | 1.71 | 0.07 | – | – | –
15 | YCAGHSAEYMWKCL (cysteine pairing not given here; also: fused to phage pIII, not shown: pIII filament protein of the bacteriophage to which the peptide is fused) [Phage-883] | 1.71 | 0.11 | – | – | –
16 | YCDGHLQIYMHKCL (cysteine pairing not given here; also: fused to phage pIII, not shown: pIII filament protein of the bacteriophage to which the peptide is fused) [Phage-884] | 1.71 | 0.1 | – | – | –
17 | YCAGHSMEYMAKCL (cysteine pairing not given here; also: fused to phage pIII, not shown: pIII filament protein of the bacteriophage to which the peptide is fused) [Phage-885] | 1.71 | 0.07 | – | – | –
18 | YCDGHLPEYFLKCL (cysteine pairing not given here; also: fused to phage pIII, not shown: pIII filament protein of the bacteriophage to which the peptide is fused) [Phage-886] | 1.71 | 0.11 | – | – | –
19 | YCDGHSLAYIAKCL (cysteine pairing not given here; also: fused to phage pIII, not shown: pIII filament protein of the bacteriophage to which the peptide is fused) [Phage-887] | 1.7 | 0.06 | – | – | –
20 | YCAGHTQEYMYKCL (cysteine pairing not given here; also: fused to phage pIII, not shown: pIII filament protein of the bacteriophage to which the peptide is fused) [Phage-888] | 1.7 | 0.05 | – | – | –
21 | YCEGHAQEYMSKCL (cysteine pairing not given here; also: fused to phage pIII, not shown: pIII filament protein of the bacteriophage to which the peptide is fused) [Phage-889] | 1.7 | 0.08 | – | – | –

Row | Binder | Anti-CD28 Fab signal (phage binding ELISA) [3] | Anti-CD28 Fab signal in the presence of CD28 [4] | Phage binding ELISA, Anti-CD28 Fab signal [5] | Phage binding ELISA, Anti-CD28 Fab signal in the presence of CD28 [6] | further results
22 | YCEGHLPQYFMKCL (cysteine pairing not given here; also: fused to phage pIII, not shown: pIII filament protein of the bacteriophage to which the peptide is fused) [Phage-890] | 1.7 | 0.07 | – | – | –
23 | YCDGHSWEYMEKCL (cysteine pairing not given here; also: fused to phage pIII, not shown: pIII filament protein of the bacteriophage to which the peptide is fused) [Phage-891] | 1.7 | 0.12 | – | – | –
24 | YCAGHSPLYMLKCL (Tested as clonal phage supernatant) [Phage-892 (Peptide-87 library clone, YCAGHSPLYMLKCL)] | – | – | 1.7 | 0.1 | –
25 | YCEGHSAEYMQKCL (Tested as clonal phage supernatant) [Phage-893 (Peptide-87 library clone, YCEGHSAEYMQKCL)] | – | – | 1.7 | 0.29 | –
26 | YCDGHLPVYLEKCL (Tested as clonal phage supernatant) [Phage-894 (Peptide-87 library clone, YCDGHLPVYLEKCL)] | – | – | 1.69 | 0.06 | –
27 | YCAGHLQEYMQKCL (Tested as clonal phage supernatant) [Phage-895 (Peptide-87 library clone, YCAGHLQEYMQKCL)] | – | – | 1.69 | 0.07 | –
28 | YCDGHAIEYMAKCL (Tested as clonal phage supernatant) [Phage-896 (Peptide-87 library clone, YCDGHAIEYMAKCL)] | – | – | 1.69 | 0.08 | –
29 | YCEGHKPEYMQKCL (Tested as clonal phage supernatant) [Phage-897 (Peptide-87 library clone, YCEGHKPEYMQKCL)] | – | – | 1.69 | 0.06 | –
30 | YCDGHAWEYMTKCL (Tested as clonal phage supernatant) [Phage-898 (Peptide-87 library clone, YCDGHAWEYMTKCL)] | – | – | 1.69 | 0.35 | –
31 | YCEGHSPWYMNKCL (Tested as clonal phage supernatant) [Phage-899 (Peptide-87 library clone, YCEGHSPWYMNKCL)] | – | – | 1.68 | 0.06 | –
32 | YCDGHSPAYIWKCL (Tested as clonal phage supernatant) [Phage-900 (Peptide-87 library clone, YCDGHSPAYIWKCL)] | – | – | 1.68 | 0.08 | –
33 | YCDGHSEQYMSKCL (Tested as clonal phage supernatant) [Phage-901 (Peptide-87 library clone, YCDGHSEQYMSKCL)] | – | – | 1.68 | 0.07 | –
34 | YCDGHAKEYMDKCL (Tested as clonal phage supernatant) [Phage-902 (Peptide-87 library clone, YCDGHAKEYMDKCL)] | – | – | 1.68 | 0.08 | –
35 | YCDGHSTEYMEKCL (Tested as clonal phage supernatant) [Phage-903 (Peptide-87 library clone, YCDGHSTEYMEKCL)] | – | – | 1.68 | 0.08 | –
36 | YCDGHSSLYMHKCL (Tested as clonal phage supernatant) [Phage-904 (Peptide-87 library clone, YCDGHSSLYMHKCL)] | – | – | 1.67 | 0.07 | –
37 | YCDGHSWQYISKCL (Peptide-87 library clone, tested as clonal phage supernatant with the peptide fused to the pIII filament of the bacteriophage) [Phage-905] | – | – | – | – | Anti-CD28 Fab signal (phage binding ELISA) [7]: 1.67; Anti-CD28 Fab signal in the presence of CD28 (phage binding ELISA) [8]: 0.05
38 | YCEGHAPQYMNKCL (Peptide-87 library clone, tested as clonal phage supernatant with the peptide fused to the pIII filament of the bacteriophage) [Phage-906] | – | – | – | – | Anti-CD28 Fab signal (phage binding ELISA) [7]: 1.67; Anti-CD28 Fab signal in the presence of CD28 (phage binding ELISA) [8]: 0.08
39 | YCEGHAPQYMTKCL (Peptide-87 library clone, tested as clonal phage supernatant with the peptide fused to the pIII filament of the bacteriophage) [Phage-911] | – | – | – | – | Anti-CD28 Fab signal (phage binding ELISA) [7]: 1.67; Anti-CD28 Fab signal in the presence of CD28 (phage binding ELISA) [8]: 0.08
40 | YCDGHAPQWMAKCL (Peptide-87 library clone, tested as clonal phage supernatant with the peptide fused to the pIII filament of the bacteriophage) [Phage-907] | – | – | – | – | Anti-CD28 Fab signal (phage binding ELISA) [7]: 1.67; Anti-CD28 Fab signal in the presence of CD28 (phage binding ELISA) [8]: 0.1
41 | YCDGHSREYMSKCL (Peptide-87 library clone, tested as clonal phage supernatant with the peptide fused to the pIII filament of the bacteriophage) [Phage-908] | – | – | – | – | Anti-CD28 Fab signal (phage binding ELISA) [7]: 1.67; Anti-CD28 Fab signal in the presence of CD28 (phage binding ELISA) [8]: 0.1
